# Measured values as given in US20220249685A1, “ANTI-MESOTHELIN ANTIBODIES AND IMMUNOCONJUGATES THEREOF” (Silverback Therapeutics, Inc., priority 2019, published 2022).
# Key:
# [1] = Tm of purified antibodies (Table 1); assay type: physicochemical; settings: purified antibody
# Protocol: Six humanized heavy chains were co-transfected with 5 humanized light chains into the ExpiCHO expression system in a 30mL culture. The supernatant was analyzed via Octet to determine off rates and any that retained binding and contained less mouse sequence, were purified and further characterized. Clones 6 and 37 were selected for further optimization. An additional mutation in CDRH2, G55A, was introduced to reduce chemical modification of the neighboring Asparagine (N) residue. These humanized sequences are represented in SEQ ID NOs. 1-15.
# [2] = Analytical hydrophobic interaction chromatography (HIC) profile, incl. after 40° C. stress; assay type: physicochemical; settings: TSKgel Butyl-NPR, ammonium sulfate
# [3] = system: huPBMCs in the presence of HEK-293 cells transfected with human MSLN; assay: TNFα production by huPBMCs with HEK-293 cells transfected with human MSLN; assay type: cell-based; settings: overnight, AlphaLISA
# Protocol: Human Whole Blood was obtained from Bloodworks Northwest and collected in 10mL EDTA tubes. Human PBMCs were then isolated from the whole blood by Ficoll gradient centrifugation and resuspended in assay media (RPMI-1640 Medium supplemented with 10% Fetal Bovine Serum, 1 mM Sodium Pyruvate, 1× GlutaMAX-1, 1× Non-Essential Amino Acids, 10mM HEPES and 0.5% Penicillin/Streptomycin; all from Gibco). Tumor cells were removed from tissue culture flasks with HyQTASE (Hyclone), washed twice and resuspended in assay media.
# Human PBMCs isolated as described above were resuspended in assay media, and plated in 96-well flat bottom microtiter plates (125,000/well). MSLN-expressing HEK-293cells were then added (25,000/well) along with titrating concentrations of conjugated or unconjugated antibodies. Mock transfected HEK-293 cells were used as a negative control. After overnight culture, supernatants were harvested, and TNFα levels were determined by AlphaLISA.
substance,measurement,setting,value
"SS1: chimeric monoclonal anti-mesothelin antibody IgG/K; VH SEQ ID NO: 25, VL SEQ ID NO: 26",Tm ° C.,[1],69 °C
same,profile on an analytical HIC column,[2],multiple variant species
same,TNFα production from huPBMCs,[3],did not stimulate TNFα production
